# From paper PMC10522483
# Molecular target: S. lophii 70S ribosome (Spraguea lophii (endogenous in spores))
# Test: cryo-EM structure; electron cryo-tomography and subtomogram averaging of ribosomes in situ in polar tubes of spores germinated on the grid; dimer map 14.3 Å (C2 symmetry, 1,191 particles), half-dimer map 10.8 Å; single-particle atomic model fitted into the maps
substance,measurement,value
S. lophii 70S ribosome (complex),percent of ribosome particles in 100S dimers,80%
same,stoichiometry N,2
